Source: PMC3253920 (Biochimica et Biophysica Acta, 2011)

Target: the molecule itself
Assay: crystal structure

B1: native rat liver glycine N-methyltransferase (enzyme, UniProt P13255 2-293, looked up)
chain: VDSVYRTRSLGVAAEGIPDQYADGEAARVWQLYIGDTRSRTAEYKAWLLGLLRQHGCHRVLDVACGTGVDSIMLVEEGFSVTSVDASDKMLKYALKERWNRRKEPAFDKWVIEEANWLTLDKDVPAGDGFDAVICLGNSFAHLPDSKGDQSEHRLALKNIASMVRPGGLLVIDHRNYDYILSTGCAPPGKNIYYKSDLTKDITTSVLTVNNKAHMVTLDYTVQVPGAGRDGAPGFSKFRLSYYPHCLASFTELVQEAFGGRCQHSVLGDFKPYRPGQAYVPCYFIHVLKKTG
modifications: acetylated N-terminal valine (Val1)
stoichiometry N: 4
